Results: US20220195067A1 (LAMKAP BIO BETA, published 2022)

T1: his-tagged recombinant huCEACAM3 (R&D Systems, #9868-CM) (human, UniProt P40198 35-155)
T1 construct: Bought reagent; also called rec. hCEACAM3; recombinant soluble human CEACAM3; not shown: His tag
T1 sequence (looked up): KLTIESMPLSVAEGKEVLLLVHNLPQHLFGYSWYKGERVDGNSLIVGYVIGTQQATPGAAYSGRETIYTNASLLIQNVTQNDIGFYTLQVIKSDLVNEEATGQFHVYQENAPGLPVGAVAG

T2: human CEACAM5 on CEACAM5-expressing cancer cell lines (human, UniProt P06731 35-685)
T2 construct: whole, on cells; also called CEACAM5 on SK-CO-1, MKN-45, HPAF-II, SNU-C1, Ls174T, LoVo cells
T2 sequence (looked up): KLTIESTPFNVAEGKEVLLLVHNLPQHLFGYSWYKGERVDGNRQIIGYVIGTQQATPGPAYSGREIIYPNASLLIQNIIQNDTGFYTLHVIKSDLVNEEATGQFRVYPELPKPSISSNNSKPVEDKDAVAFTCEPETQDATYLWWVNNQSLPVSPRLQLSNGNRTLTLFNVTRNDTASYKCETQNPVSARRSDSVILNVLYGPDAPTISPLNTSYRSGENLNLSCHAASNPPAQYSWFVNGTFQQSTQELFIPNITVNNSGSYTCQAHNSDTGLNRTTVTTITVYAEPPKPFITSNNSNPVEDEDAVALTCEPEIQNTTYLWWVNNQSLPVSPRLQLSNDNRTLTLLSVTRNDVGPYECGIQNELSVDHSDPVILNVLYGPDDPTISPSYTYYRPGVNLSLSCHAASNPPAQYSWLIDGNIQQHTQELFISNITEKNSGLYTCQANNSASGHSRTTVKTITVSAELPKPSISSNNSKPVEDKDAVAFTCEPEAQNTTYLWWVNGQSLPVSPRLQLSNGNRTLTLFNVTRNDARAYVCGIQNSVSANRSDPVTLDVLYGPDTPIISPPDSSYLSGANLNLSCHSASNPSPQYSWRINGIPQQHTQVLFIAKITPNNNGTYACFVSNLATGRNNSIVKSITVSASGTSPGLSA


Columns and labels:
[1] = molecular target: T1, his-tagged recombinant huCEACAM3 (R&D …); test: BLI (Octet), KD on CEACAM3 against KD on CEACAM5
Description: The affinity of the anti-human CEACAM5 arm of the CD47×CEACAM5 bispecific antibodies of the invention for recombinant soluble human CEACAM5 was determined using the Bio-Layer Interferometry (BLI) technology. An OctetRED96 instrument and Protein A biosensors were used (Sartorius). The measurement was performed at 30° C. After hydration, pre-conditioning and a baseline step in Kinetic buffer (PBS, 0.002% Tween 20, 0.01% BSA, Kathon; Sartorius), biosensors were loaded for 5 min with the κλ body at 0.5 μg/mL in Kinetic buffer. Then, biosensors were dipped into a serial dilution of recombinant human CEACAM5 Extra Cellular Domain (ECD) soluble protein (produced in house), starting at 50 nM with a 2× dilution factor. The association and dissociation phases were monitored for 600 seconds each. Biosensors were regenerated using 10 mM glycine pH 1.7. A standard acquisition rate was applied (5.0 Hz, averaging by 20). Curves were processed with a reference well subtraction, a Y alignment on the baseline, without interstep correction. The affinity was measured applying a 1:1 global fitting model on the full association and dissociation steps. The binding affinity (KD) of the bispecific antibodies of the invention to recombinant human CD47 was determined by the same experimental procedure.
The affinity of the anti-human CEACAM5 arms of the CD47×CEACAM5 bispecific antibodies of the invention for recombinant soluble human CEACAM3 was determined using the Bio-Layer Interferometry (BLI) technology and an OctetRED96 instrument. HIS1K biosensors (Sartorius), loaded with an anti-His tag antibody, were used to capture his-tagged recombinant huCEACAM3 (R&D Systems, #9868-CM). The measurement was performed at 30° C. After hydration, pre-conditioning and a baseline step in Kinetic buffer (PBS, 0.002% Tween 20, 0.01% BSA, Kathon; Sartorius), biosensors were loaded for 5 min with the recombinant huCEACAM3 at 5 μg/mL in Kinetic buffer. […] The association and dissociation phases were monitored for 60 seconds and 120 seconds respectively. […]

[2] = molecular target: T2, human CEACAM5 on CEACAM5-expressing …; test: flow cytometry on Ls174T cells (carry CEACAM5 and CD47), PE anti-human IgG Fc
Description: (§1) The binding of CD47×CEACAM5 bispecific antibodies was tested on CEACAM5-expressing human gastric adenocarcinoma cells (e.g. MKN-45), on CEACAM5-expressing human colorectal cancer cells (SK-CO-1, SNU-C1, Ls174T, and LoVo), and on CEACAM5-expressing pancreatic adenocarcinoma cells (HPAF-II).
(§2) Cells were harvested, counted, checked for viability and resuspended at 3×10⁶ cells/ml in FACS buffer (PBS 2% BSA, 0.1% NaN3). 100 μl of the cell suspension was distributed in V-bottom 96-well plates (3×10⁵ cells/well). The supernatant was removed by centrifugation 3 minutes at 4° C., 1300 rpm. Increasing concentrations of the antibody according to the invention were then added into the wells and incubated for 15 minutes at 4° C. Cells were washed twice with cold FACS buffer and re-incubated for further 15 minutes at 4° C. with the PE (R-phycoerythrin)-conjugated mouse anti-human IgG Fc secondary antibody (SouthernBiotech, pre-diluted 1:100 in FACS buffer). Cells were washed twice with cold FACS buffer and resuspended in 300 μl FACS buffer with 1:15000-diluted SytoxBlue (Life Technologies). Fluorescence, specifically mean fluorescence […] (MFI), was determined using a Cytoflex […] flow cytometer. Binding curves and […] and Emax values were obtained and calculated using GraphPad Prism7 software.

[3] = molecular target: T2, human CEACAM5 on CEACAM5-expressing …; test: flow cytometry on SK-CO-1 cells (carry CEACAM5 and CD47), PE anti-human IgG Fc
Description: as §1, §2

[4] = molecular target: T2, human CEACAM5 on CEACAM5-expressing …; test: flow cytometry on SNU-C1 cells (carry CEACAM5 and CD47), PE anti-human IgG Fc
Description: as §1, §2

[5] = molecular target: T2, human CEACAM5 on CEACAM5-expressing …; test: flow cytometry on LoVo cells (carry CEACAM5 and CD47), PE anti-human IgG Fc
Description: as §1, §2

Binder | Fold difference hCEACAM3/hCEACAM5 (ratio of KD) [1] [fold] | EC50 [2] [nM] | Emax (MFI) [2] [MFI] | EC50 [3] [nM] | Emax (MFI) [3] [MFI] | EC50 [4] [nM] | Emax (MFI) [4] [MFI] | EC50 [5] [nM] | Emax (MFI) [5] [MFI]
K2AC84 (bispecific antibody, human IgG1, kappa, lambda, Kappa-lambda body; also called CD47xCEACAM5 bispecific antibody K2AC84; AC84 (CEACAM5 arm)) heavy: not shown light 1: QSVLTQPPSVSAAPGQKVTISCSGSSSNIGIGLVSWYQQLPGTAPKLLIYNVNTRPSGIPDRFSGSKSGTSATLGITGLQTGDEADYYCGTWDFSYRVDFGGGTKLTVLGQPKAAPSVTLFPPSSEELQANKATLVCLISDFYPGAVTVAWKADSSPVKAGVETTTPSKQSNNKYAASSYLSLTPEQWKSHRSYSCQVTHEGSTVEKTVAPTECS light 2: not shown | 137 | 5.6 | 89000 | 12 | 1e+06 | 2.47 | 370000 | 16 | 360000
K2AC22 (bispecific antibody, human IgG1, kappa, lambda, Kappa-lambda body, human IgG1, one arm for CEACAM5 and one for CD47; comparison antibody from WO2019234576; also called state of the art bispecific CEAxCD47 antibody K2AC22; CD47xCEACAM5 bispecific antibody K2AC22) heavy: not shown light 1: QSVLTQPPSVSAAPGQKVTISCSGSSSNIANGIVSWYQQLPGTAPKLLIYFDNLRPSGIPDRFSGSKSGTSATLGITGLQTGDEADYYCGTWDFSYGIVFGGGTKLTVLGQPKAAPSVTLFPPSSEELQANKATLVCLISDFYPGAVTVAWKADSSPVKAGVETTTPSKQSNNKYAASSYLSLTPEQWKSHRSYSCQVTHEGSTVEKTVAPTECS light 2: not shown | 83 | 28 | 73000 | 24 | 520000 | 10.7 | 240000 | 44 | 230000
K2AC100 (bispecific antibody, human IgG1, kappa, lambda, Kappa-lambda body; also called CD47xCEACAM5 bispecific antibody K2AC100; AC100 (CEACAM5 arm)) heavy: not shown light 1: QSVLTQPPSVSAAPGQKVTISCSGSSSNIGYGLVSWYQQLPGTAPKLLIYNGNIRPSGIPDRFSGSKSGTSATLGITGLQTGDEADYYCGTWDFSYRVDFGGGTKLTVLGQPKAAPSVTLFPPSSEELQANKATLVCLISDFYPGAVTVAWKADSSPVKAGVETTTPSKQSNNKYAASSYLSLTPEQWKSHRSYSCQVTHEGSTVEKTVAPTECS light 2: not shown | 146 | 4.5 | 70000 | 14.7 | 900000 | 3.27 | 300000 | 18.7 | 280000
